This note sets out measurements from patent publication US20260209386A1 (MYTHIC THERAPEUTICS, published 2026).

Sequences and labels used below:
B1: MYT11193 (antibody, V domains shown)
VH: EVQLVESGGGLVQPGGSLRLSCTASGIDLSSYVMGWVRQAPGKGLEWVGYIYHGGGTYYATWARGRFTISRDTSKNTVYLQMNSLRAEDTAVYFCARAAADFYFNLWGQGTLVTVSS
VL: EIVMTQSPSTLSASVGDRVIITCQASQSISSYLAWYQQKPGKAPKLLIYDISDLASGVPSRFSGSGSGAEFTLTISSLQPDDFATYYCQSYYWISNSGAAFGQGTKLTVL
notes: HC variant of MYT9460, sub at HCV pos 53 (H2 04)
B2: MYT11224 (antibody, V domains shown)
VH: EVQLVESGGGLVQPGGSLRLSCTASGIDLSSYVMGWVRQAPGKGLEWVGYIYGGGGTYYATWARGRFTISRDTSKNTVYLQMNSLRAEDTAVYFCARAAADFYFNLWGQGTLVTVSS
VL: EIVMTQSPSTLSASVGDRVIITCQASQHISSYLAWYQQKPGKAPKLLIYDISDLASGVPSRFSGSGSGAEFTLTISSLQPDDFATYYCQSYYWISNSGAAFGQGTKLTVL
notes: LC variant of MYT9460, sub at LCV pos 28 (L1 05)
B3: MYT11240 (antibody, V domains shown)
VH: EVQLVESGGGLVQPGGSLRLSCTASGIDLSSYVMGWVRQAPGKGLEWVGYIYGGGGTYYATWARGRFTISRDTSKNTVYLQMNSLRAEDTAVYFCARAAADFYFNLWGQGTLVTVSS
VL: EIVMTQSPSTLSASVGDRVIITCQASQSISSYLAWYQQKPGKAPKLLIYDISDLASGVPSRFSGSGSGAEFTLTISSLQPDDFATYYCQSHYWISNSGAAFGQGTKLTVL
notes: LC variant of MYT9460, sub at LCV pos 91 (L3 03)
B4: MYT11213 (antibody, V domains shown)
VH: EVQLVESGGGLVQPGGSLRLSCTASGIDLSSYVMGWVRQAPGKGLEWVGYIYGGGGTYYATWARGRFTISRDTSKNTVYLQMNSLRAEDTAVYFCARAAADFHFNLWGQGTLVTVSS
VL: EIVMTQSPSTLSASVGDRVIITCQASQSISSYLAWYQQKPGKAPKLLIYDISDLASGVPSRFSGSGSGAEFTLTISSLQPDDFATYYCQSYYWISNSGAAFGQGTKLTVL
notes: HC variant of MYT9460, sub at HCV pos 103 (H3 08)
B5: MYT11244 (antibody, V domains shown)
VH: EVQLVESGGGLVQPGGSLRLSCTASGIDLSSYVMGWVRQAPGKGLEWVGYIYGGGGTYYATWARGRFTISRDTSKNTVYLQMNSLRAEDTAVYFCARAAADFYFNLWGQGTLVTVSS
VL: EIVMTQSPSTLSASVGDRVIITCQASQSISSYLAWYQQKPGKAPKLLIYDISDLASGVPSRFSGSGSGAEFTLTISSLQPDDFATYYCQSYYWIHNSGAAFGQGTKLTVL
notes: LC variant of MYT9460, sub at LCV pos 95 (L3 07)
B6: MYT11247 (antibody, V domains shown)
VH: EVQLVESGGGLVQPGGSLRLSCTASGIDLSSYVMGWVRQAPGKGLEWVGYIYGGGGTYYATWARGRFTISRDTSKNTVYLQMNSLRAEDTAVYFCARAAADFYFNLWGQGTLVTVSS
VL: EIVMTQSPSTLSASVGDRVIITCQASQSISSYLAWYQQKPGKAPKLLIYDISDLASGVPSRFSGSGSGAEFTLTISSLQPDDFATYYCQSYYWISNSHAAFGQGTKLTVL
notes: LC variant of MYT9460, sub at LCV pos 98 (L3 10)
B7: MYT11236 (antibody, V domains shown)
VH: EVQLVESGGGLVQPGGSLRLSCTASGIDLSSYVMGWVRQAPGKGLEWVGYIYGGGGTYYATWARGRFTISRDTSKNTVYLQMNSLRAEDTAVYFCARAAADFYFNLWGQGTLVTVSS
VL: EIVMTQSPSTLSASVGDRVIITCQASQSISSYLAWYQQKPGKAPKLLIYDISDLHSGVPSRFSGSGSGAEFTLTISSLQPDDFATYYCQSYYWISNSGAAFGQGTKLTVL
notes: LC variant of MYT9460, sub at LCV pos 55 (L2 06)
B8: MYT11194 (antibody, V domains shown)
VH: EVQLVESGGGLVQPGGSLRLSCTASGIDLSSYVMGWVRQAPGKGLEWVGYIYGHGGTYYATWARGRFTISRDTSKNTVYLQMNSLRAEDTAVYFCARAAADFYFNLWGQGTLVTVSS
VL: EIVMTQSPSTLSASVGDRVIITCQASQSISSYLAWYQQKPGKAPKLLIYDISDLASGVPSRFSGSGSGAEFTLTISSLQPDDFATYYCQSYYWISNSGAAFGQGTKLTVL
notes: HC variant of MYT9460, sub at HCV pos 54 (H2 05)
B9: MYT11195 (antibody, V domains shown)
VH: EVQLVESGGGLVQPGGSLRLSCTASGIDLSSYVMGWVRQAPGKGLEWVGYIYGGHGTYYATWARGRFTISRDTSKNTVYLQMNSLRAEDTAVYFCARAAADFYFNLWGQGTLVTVSS
VL: EIVMTQSPSTLSASVGDRVIITCQASQSISSYLAWYQQKPGKAPKLLIYDISDLASGVPSRFSGSGSGAEFTLTISSLQPDDFATYYCQSYYWISNSGAAFGQGTKLTVL
notes: HC variant of MYT9460, sub at HCV pos 55 (H2 06)
B10: MYT11245 (antibody, V domains shown)
VH: EVQLVESGGGLVQPGGSLRLSCTASGIDLSSYVMGWVRQAPGKGLEWVGYIYGGGGTYYATWARGRFTISRDTSKNTVYLQMNSLRAEDTAVYFCARAAADFYFNLWGQGTLVTVSS
VL: EIVMTQSPSTLSASVGDRVIITCQASQSISSYLAWYQQKPGKAPKLLIYDISDLASGVPSRFSGSGSGAEFTLTISSLQPDDFATYYCQSYYWISHSGAAFGQGTKLTVL
notes: LC variant of MYT9460, sub at LCV pos 96 (L3 08)
B11: MYT11196 (antibody, V domains shown)
VH: EVQLVESGGGLVQPGGSLRLSCTASGIDLSSYVMGWVRQAPGKGLEWVGYIYGGGHTYYATWARGRFTISRDTSKNTVYLQMNSLRAEDTAVYFCARAAADFYFNLWGQGTLVTVSS
VL: EIVMTQSPSTLSASVGDRVIITCQASQSISSYLAWYQQKPGKAPKLLIYDISDLASGVPSRFSGSGSGAEFTLTISSLQPDDFATYYCQSYYWISNSGAAFGQGTKLTVL
notes: HC variant of MYT9460, sub at HCV pos 56 (H2 07)
B12: MYT11238 (antibody, V domains shown)
VH: EVQLVESGGGLVQPGGSLRLSCTASGIDLSSYVMGWVRQAPGKGLEWVGYIYGGGGTYYATWARGRFTISRDTSKNTVYLQMNSLRAEDTAVYFCARAAADFYFNLWGQGTLVTVSS
VL: EIVMTQSPSTLSASVGDRVIITCQASQSISSYLAWYQQKPGKAPKLLIYDISDLASGVPSRFSGSGSGAEFTLTISSLQPDDFATYYCHSYYWISNSGAAFGQGTKLTVL
notes: LC variant of MYT9460, sub at LCV pos 89 (L3 01)
B13: MYT11225 (antibody, V domains shown)
VH: EVQLVESGGGLVQPGGSLRLSCTASGIDLSSYVMGWVRQAPGKGLEWVGYIYGGGGTYYATWARGRFTISRDTSKNTVYLQMNSLRAEDTAVYFCARAAADFYFNLWGQGTLVTVSS
VL: EIVMTQSPSTLSASVGDRVIITCQASQSHSSYLAWYQQKPGKAPKLLIYDISDLASGVPSRFSGSGSGAEFTLTISSLQPDDFATYYCQSYYWISNSGAAFGQGTKLTVL
notes: LC variant of MYT9460, sub at LCV pos 29 (L1 06)
B14: MYT11246 (antibody, V domains shown)
VH: EVQLVESGGGLVQPGGSLRLSCTASGIDLSSYVMGWVRQAPGKGLEWVGYIYGGGGTYYATWARGRFTISRDTSKNTVYLQMNSLRAEDTAVYFCARAAADFYFNLWGQGTLVTVSS
VL: EIVMTQSPSTLSASVGDRVIITCQASQSISSYLAWYQQKPGKAPKLLIYDISDLASGVPSRFSGSGSGAEFTLTISSLQPDDFATYYCQSYYWISNHGAAFGQGTKLTVL
notes: LC variant of MYT9460, sub at LCV pos 97 (L3 09)
B15: MYT11229 (antibody, V domains shown)
VH: EVQLVESGGGLVQPGGSLRLSCTASGIDLSSYVMGWVRQAPGKGLEWVGYIYGGGGTYYATWARGRFTISRDTSKNTVYLQMNSLRAEDTAVYFCARAAADFYFNLWGQGTLVTVSS
VL: EIVMTQSPSTLSASVGDRVIITCQASQSISSYHAWYQQKPGKAPKLLIYDISDLASGVPSRFSGSGSGAEFTLTISSLQPDDFATYYCQSYYWISNSGAAFGQGTKLTVL
notes: LC variant of MYT9460, sub at LCV pos 33 (L1 10)
B16: MYT11222 (antibody, V domains shown)
VH: EVQLVESGGGLVQPGGSLRLSCTASGIDLSSYVMGWVRQAPGKGLEWVGYIYGGGGTYYATWARGRFTISRDTSKNTVYLQMNSLRAEDTAVYFCARAAADFYFNLWGQGTLVTVSS
VL: EIVMTQSPSTLSASVGDRVIITCQAHQSISSYLAWYQQKPGKAPKLLIYDISDLASGVPSRFSGSGSGAEFTLTISSLQPDDFATYYCQSYYWISNSGAAFGQGTKLTVL
notes: LC variant of MYT9460, sub at LCV pos 26 (L1 03)
B17: MYT11197 (antibody, V domains shown)
VH: EVQLVESGGGLVQPGGSLRLSCTASGIDLSSYVMGWVRQAPGKGLEWVGYIYGGGGHYYATWARGRFTISRDTSKNTVYLQMNSLRAEDTAVYFCARAAADFYFNLWGQGTLVTVSS
VL: EIVMTQSPSTLSASVGDRVIITCQASQSISSYLAWYQQKPGKAPKLLIYDISDLASGVPSRFSGSGSGAEFTLTISSLQPDDFATYYCQSYYWISNSGAAFGQGTKLTVL
notes: HC variant of MYT9460, sub at HCV pos 57 (H2 08)
B18: MYT11210 (antibody, V domains shown)
VH: EVQLVESGGGLVQPGGSLRLSCTASGIDLSSYVMGWVRQAPGKGLEWVGYIYGGGGTYYATWARGRFTISRDTSKNTVYLQMNSLRAEDTAVYFCARAAHDFYFNLWGQGTLVTVSS
VL: EIVMTQSPSTLSASVGDRVIITCQASQSISSYLAWYQQKPGKAPKLLIYDISDLASGVPSRFSGSGSGAEFTLTISSLQPDDFATYYCQSYYWISNSGAAFGQGTKLTVL
notes: HC variant of MYT9460, sub at HCV pos 100 (H3 05)
B19: MYT11221 (antibody, V domains shown)
VH: EVQLVESGGGLVQPGGSLRLSCTASGIDLSSYVMGWVRQAPGKGLEWVGYIYGGGGTYYATWARGRFTISRDTSKNTVYLQMNSLRAEDTAVYFCARAAADFYFNLWGQGTLVTVSS
VL: EIVMTQSPSTLSASVGDRVIITCQHSQSISSYLAWYQQKPGKAPKLLIYDISDLASGVPSRFSGSGSGAEFTLTISSLQPDDFATYYCQSYYWISNSGAAFGQGTKLTVL
notes: LC variant of MYT9460, sub at LCV pos 25 (L1 02)

This assay addresses T1, Human PTK7 Protein, His Tag, Acro Biosystems (human, UniProt Q13308 31-704).
T1 construct: Bought protein; also called CCK4; not shown: His tag
T1 sequence: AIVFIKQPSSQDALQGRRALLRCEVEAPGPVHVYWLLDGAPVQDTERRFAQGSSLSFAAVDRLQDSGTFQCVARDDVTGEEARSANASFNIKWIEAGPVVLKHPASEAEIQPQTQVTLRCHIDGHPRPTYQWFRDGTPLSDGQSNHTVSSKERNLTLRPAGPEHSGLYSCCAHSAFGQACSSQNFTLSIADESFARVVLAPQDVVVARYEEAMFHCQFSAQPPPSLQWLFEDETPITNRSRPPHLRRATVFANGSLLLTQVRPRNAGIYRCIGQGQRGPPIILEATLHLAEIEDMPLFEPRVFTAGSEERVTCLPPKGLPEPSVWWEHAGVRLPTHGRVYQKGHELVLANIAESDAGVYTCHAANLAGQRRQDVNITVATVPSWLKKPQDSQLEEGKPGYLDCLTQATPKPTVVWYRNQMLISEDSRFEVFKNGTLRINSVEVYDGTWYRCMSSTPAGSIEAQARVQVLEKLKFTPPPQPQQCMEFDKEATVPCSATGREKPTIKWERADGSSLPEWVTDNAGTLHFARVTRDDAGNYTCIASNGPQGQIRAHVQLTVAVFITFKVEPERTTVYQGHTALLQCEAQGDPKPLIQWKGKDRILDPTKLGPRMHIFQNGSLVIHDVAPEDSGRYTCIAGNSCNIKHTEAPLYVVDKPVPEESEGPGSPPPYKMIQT
The experiment in a line: BLI (Octet), antibody on anti-human Fc sensor, 50 nM PTK7, dissociation at pH 7.4 or 5.4; 1 = pH dependent binding relative to parent. A general note: Biolayer interferometry detects binding as a change in optical thickness at a sensor tip.
On to B1, for which the binding result is “binds”.

Take B2: the binding result is “binds”.

For B3, the binding result was “binds”.

Regarding B4, the binding result is reported as “binds”.

With B5, the binding result is “binds”.

B6: the binding result was “binds”.

As to B7, the binding result was “binds”.

Turning to B8, the binding result is “binds”.

On to B9, for which the binding result was “binds”.

In the case of B10, the binding result is recorded as “binds”.

On to B11, for which the binding result is “binds”.

Consider B12, for which the binding result is recorded as “binds”.

Regarding B13, the binding result is listed as “binds”.

As to B14, the binding result is recorded as “binds”.

As to B15, the binding result was “binds”.

For the molecule B16, the binding result is “binds”.

B17: the binding result is given as “binds”.

On to B18, for which the binding result is given as “binds”.

Consider B19, for which the binding result was “binds”.
